Here are results for 1 molecule from paper doi:10.1101/2021.05.05.442812 (bioRxiv, 2021).

Assay [1] has as its target β subunit of E. coli RNAP (E. coli, UniProt P0A8V2 1-1342). Description: cryo-EM structure.
Assay [2] deals with β’ subunit of E. coli RNAP (E. coli, UniProt P0A8T7 1-1407). Put plainly: cryo-EM structure.
Chain of β’ subunit of E. coli RNAP (P0A8T7 whole entry): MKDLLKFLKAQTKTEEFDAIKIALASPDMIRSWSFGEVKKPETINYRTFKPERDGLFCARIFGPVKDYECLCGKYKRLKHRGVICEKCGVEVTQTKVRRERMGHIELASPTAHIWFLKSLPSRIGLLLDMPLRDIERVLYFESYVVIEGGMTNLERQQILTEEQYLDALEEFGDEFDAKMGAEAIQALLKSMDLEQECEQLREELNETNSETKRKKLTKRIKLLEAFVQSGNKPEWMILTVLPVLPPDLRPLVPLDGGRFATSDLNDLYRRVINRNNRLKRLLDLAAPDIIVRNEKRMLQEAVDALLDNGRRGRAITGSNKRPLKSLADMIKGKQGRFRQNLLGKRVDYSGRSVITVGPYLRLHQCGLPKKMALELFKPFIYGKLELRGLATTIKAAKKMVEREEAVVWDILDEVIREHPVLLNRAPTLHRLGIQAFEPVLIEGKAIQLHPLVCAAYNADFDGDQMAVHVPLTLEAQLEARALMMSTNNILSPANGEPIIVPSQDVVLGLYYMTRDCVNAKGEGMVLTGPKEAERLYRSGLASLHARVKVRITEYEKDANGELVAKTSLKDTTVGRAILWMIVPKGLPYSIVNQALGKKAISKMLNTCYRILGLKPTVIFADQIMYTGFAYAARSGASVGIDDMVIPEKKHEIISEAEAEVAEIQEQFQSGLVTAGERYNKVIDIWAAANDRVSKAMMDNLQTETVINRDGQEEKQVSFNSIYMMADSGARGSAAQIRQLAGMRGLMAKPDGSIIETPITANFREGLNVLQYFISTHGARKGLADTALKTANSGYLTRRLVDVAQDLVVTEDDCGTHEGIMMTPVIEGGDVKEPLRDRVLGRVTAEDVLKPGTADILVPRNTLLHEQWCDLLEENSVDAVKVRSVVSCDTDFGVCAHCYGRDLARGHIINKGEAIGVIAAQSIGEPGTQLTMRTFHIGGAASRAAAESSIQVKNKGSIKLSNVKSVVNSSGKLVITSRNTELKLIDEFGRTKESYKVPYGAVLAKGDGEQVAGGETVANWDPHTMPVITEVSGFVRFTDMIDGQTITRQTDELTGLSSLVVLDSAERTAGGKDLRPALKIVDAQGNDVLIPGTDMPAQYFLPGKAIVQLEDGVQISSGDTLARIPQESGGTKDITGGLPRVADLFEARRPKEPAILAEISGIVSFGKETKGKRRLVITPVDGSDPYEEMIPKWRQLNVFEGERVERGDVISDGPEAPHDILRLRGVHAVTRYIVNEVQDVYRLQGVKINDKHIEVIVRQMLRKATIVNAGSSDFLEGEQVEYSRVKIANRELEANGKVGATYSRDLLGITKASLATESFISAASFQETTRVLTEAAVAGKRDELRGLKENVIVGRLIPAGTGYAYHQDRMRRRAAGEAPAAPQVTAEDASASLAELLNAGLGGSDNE

Chain of β subunit of E. coli RNAP (P0A8V2 whole entry): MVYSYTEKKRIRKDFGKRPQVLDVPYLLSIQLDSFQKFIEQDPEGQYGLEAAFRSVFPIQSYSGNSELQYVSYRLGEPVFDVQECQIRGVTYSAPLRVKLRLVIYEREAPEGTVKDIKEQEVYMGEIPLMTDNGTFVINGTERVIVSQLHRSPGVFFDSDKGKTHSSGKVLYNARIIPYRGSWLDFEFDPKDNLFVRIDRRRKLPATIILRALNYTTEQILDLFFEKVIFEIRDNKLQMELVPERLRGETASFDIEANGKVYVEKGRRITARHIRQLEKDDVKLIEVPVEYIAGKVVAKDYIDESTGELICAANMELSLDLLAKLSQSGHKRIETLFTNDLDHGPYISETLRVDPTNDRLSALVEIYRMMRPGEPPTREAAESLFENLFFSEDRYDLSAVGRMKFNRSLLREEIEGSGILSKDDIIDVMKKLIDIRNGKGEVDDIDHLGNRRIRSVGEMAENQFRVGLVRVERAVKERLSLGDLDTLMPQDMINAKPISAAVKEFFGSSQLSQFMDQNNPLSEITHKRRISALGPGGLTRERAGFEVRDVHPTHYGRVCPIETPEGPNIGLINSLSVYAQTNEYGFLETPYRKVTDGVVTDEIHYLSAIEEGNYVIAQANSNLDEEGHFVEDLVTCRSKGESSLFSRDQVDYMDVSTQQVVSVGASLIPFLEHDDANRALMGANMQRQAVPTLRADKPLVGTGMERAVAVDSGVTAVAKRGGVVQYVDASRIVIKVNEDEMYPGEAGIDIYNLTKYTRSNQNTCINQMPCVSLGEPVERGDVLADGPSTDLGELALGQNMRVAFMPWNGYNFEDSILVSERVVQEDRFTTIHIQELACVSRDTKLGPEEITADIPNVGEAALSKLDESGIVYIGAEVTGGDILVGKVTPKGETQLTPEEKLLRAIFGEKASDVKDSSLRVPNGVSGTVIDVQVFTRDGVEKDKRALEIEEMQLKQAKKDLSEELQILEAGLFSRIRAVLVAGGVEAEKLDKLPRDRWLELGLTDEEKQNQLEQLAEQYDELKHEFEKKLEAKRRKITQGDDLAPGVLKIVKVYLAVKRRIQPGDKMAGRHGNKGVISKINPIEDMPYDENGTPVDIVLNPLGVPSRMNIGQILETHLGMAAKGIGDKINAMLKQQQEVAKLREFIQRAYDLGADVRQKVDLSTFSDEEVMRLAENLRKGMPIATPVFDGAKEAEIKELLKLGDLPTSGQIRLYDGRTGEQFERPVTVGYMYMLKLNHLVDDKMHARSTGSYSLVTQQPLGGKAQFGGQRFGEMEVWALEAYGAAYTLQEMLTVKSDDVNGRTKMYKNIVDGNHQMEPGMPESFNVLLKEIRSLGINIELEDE

B1: E. coli RapA protein (enzyme, UniProt P60240 1-968, looked up)
chain: MPFTLGQRWISDTESELGLGTVVAVDARTVTLLFPSTGENRLYARSDSPVTRVMFNPGDTITSHDGWQMQVEEVKEENGLLTYIGTRLDTEESGVALREVFLDSKLVFSKPQDRLFAGQIDRMDRFALRYRARKYSSEQFRMPYSGLRGQRTSLIPHQLNIAHDVGRRHAPRVLLADEVGLGKTIEAGMILHQQLLSGAAERVLIIVPETLQHQWLVEMLRRFNLRFALFDDERYAEAQHDAYNPFDTEQLVICSLDFARRSKQRLEHLCEAEWDLLVVDEAHHLVWSEDAPSREYQAIEQLAEHVPGVLLLTATPEQLGMESHFARLRLLDPNRFHDFAQFVEEQKNYRPVADAVAMLLAGNKLSNDELNMLGEMIGEQDIEPLLQAANSDSEDAQSARQELVSMLMDRHGTSRVLFRNTRNGVKGFPKRELHTIKLPLPTQYQTAIKVSGIMGARKSAEDRARDMLYPERIYQEFEGDNATWWNFDPRVEWLMGYLTSHRSQKVLVICAKAATALQLEQVLREREGIRAAVFHEGMSIIERDRAAAWFAEEDTGAQVLLCSEIGSEGRNFQFASHMVMFDLPFNPDLLEQRIGRLDRIGQAHDIQIHVPYLEKTAQSVLVRWYHEGLDAFEHTCPTGRTIYDSVYNDLINYLASPDQTEGFDDLIKNCREQHEALKAQLEQGRDRLLEIHSNGGEKAQALAESIEEQDDDTNLIAFAMNLFDIIGINQDDRGDNMIVLTPSDHMLVPDFPGLSEDGITITFDREVALAREDAQFITWEHPLIRNGLDLILSGDTGSSTISLLKNKALPVGTLLVELIYVVEAQAPKQLQLNRFLPPTPVRMLLDKNGNNLAAQVEFETFNRQLNAVNRHTGSKLVNAVQQDVHAILQLGEAQIEKSARALIDAARNEADEKLSAELSRLEALRAVNPNIRDDELTAIESNRQQVMESLDQAGWRLDALRLIVVTHQ
As for B1, the binding result in assay [1] and in assay [2] was “binds” throughout.
